In PMC5643395:

System: histone octamer WT
Experiment: ensemble FRET (microplate), salt-induced disassembly
Conditions: Reconstitution by dialysis from 2 M to 5 mM NaCl in 10 mM Tris-HCl, 0.1 mM EDTA; FRET over NaCl titration (FRET buffer and temperature not in the material) …

Widom 601 170 bp
K half: 800 mM NaCl
